Blank lines part the entries; values can stand above or below the binder they belong to.
Key:
[1] = target: T1, human Siglec15-Fc protein (human); assay: competitive ELISA: biotin-labeled human Siglec15-Fc in solution, competitor coated benchmark; curve levels off at OD about 0.55, inhibition incomplete
T1 construct: In house made; also called recombinant human Siglec15 protein with human IgG1 Fc at the C-terminus
Description: (§1) The abilities of the anti-Siglec15 antibodies of the disclosure to block benchmark-human Siglec15 binding were measured in a competitive ELISA assay. Briefly, the benchmark was coated on 96-well micro plates at 2 μg/mL in PBS, 100 μl per well, and incubated for 2 hours at 37° C. Then plates were washed once with wash buffer, and blocked with 5% w/v non-fatty milk in PBST overnight at 4° C. The next day, the anti-Siglec15 antibodies of the disclosure or controls were diluted with biotin labeled human Siglec15-Fc protein (prepared in-house with SEQ ID NO: 19, 37 ng/ml in PBST with 2.5% w/v non-fatty milk), starting at 80 nM with a 4-fold serial dilution, and incubated at room temperature for 40 minutes. After plate washing 4 times, the antibody/Siglec15-Fc mixtures were added to benchmark coated plates, 100 μl per well. After incubation at 37° C. for 40 minutes, plates were washed 4 times again using wash buffer. Then the plates were added and incubated with 100 μl/well streptavidin conjugated HRP for 40 minutes at 37° C. […] Finally, TMB was added and the reaction was stopped using 1M H₂SO₄, and the absorbance of each well was read on a microplate reader using dual wavelength mode with 450 nm for TMB and 630 nm as the reference wavelength, then the OD (450-630) values were plotted against antibody concentration. Data was analyzed using Graphpad Prism software and IC₅₀ values were reported.

[2] = target: T1, human Siglec15-Fc protein; assay: competitive ELISA: biotin-labeled human Siglec15-Fc in solution, competitor coated benchmark
Description: as §1

[3] = target: T2, recombinant human Siglec15-his protein (human, UniProt Q6ZMC9 20-263); assay: capture ELISA, captured antibody, biotin-labeled human Siglec15-his in solution
T2 construct: In house made; Biotin-labeled in the capture ELISA
T2 sequence: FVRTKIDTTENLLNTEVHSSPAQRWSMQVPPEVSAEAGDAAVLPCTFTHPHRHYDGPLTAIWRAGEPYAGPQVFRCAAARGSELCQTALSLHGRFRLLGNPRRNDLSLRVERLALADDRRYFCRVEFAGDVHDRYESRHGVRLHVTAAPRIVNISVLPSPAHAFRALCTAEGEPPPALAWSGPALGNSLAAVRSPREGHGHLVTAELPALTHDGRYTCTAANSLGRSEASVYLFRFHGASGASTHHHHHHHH
Description: Briefly, 96-well plates were coated with 100 μl of 2 μg/ml AffiniPure Goat Anti-Human IgG F(ab′)₂ fragment specific (Jackson Immuno Research, Cat #109-005-097) in PBS for 2 hours at 37° C. Plates were washed once with wash buffer (PBS+0.05% v/v Tween-20, PBST) and then blocked with 200 μl blocking buffer (5% w/v non-fatty milk in PBST) overnight at 4° C. Plates were washed 4 times and respectively incubated with 100 μl serially diluted anti-Siglec15 antibodies of the disclosure, the benchmark and hIgG (human immunoglobulin (pH4) for intravenous injection, Hualan Biological Engineering Inc.), 5-fold dilution in 2.5% w/v non-fatty milk in PBST starting at 66.7 nM, for 40 minutes at 37° C., and then washed 4 times again. […] The reaction was stopped in 4 minutes at room temperature with 50 μl/well 1M H₂SO₄, and the absorbance of each well was read on a microplate reader using dual wavelength mode with 450 nm for TMB and 630 nm as the reference wavelength, then the OD (450-630) values were plotted against antibody concentration. Data was analyzed using Graphpad Prism software and EC₅₀ values were reported.

[4] = target: T3, human Siglec15-mouse Fc protein (human); assay: cell based blocking FACS: human Siglec15-mouse Fc in solution, blocked ligand human LRRC4C on LRRC4C-3F12-1B9 cells
T3 construct: In house made
T3 chain: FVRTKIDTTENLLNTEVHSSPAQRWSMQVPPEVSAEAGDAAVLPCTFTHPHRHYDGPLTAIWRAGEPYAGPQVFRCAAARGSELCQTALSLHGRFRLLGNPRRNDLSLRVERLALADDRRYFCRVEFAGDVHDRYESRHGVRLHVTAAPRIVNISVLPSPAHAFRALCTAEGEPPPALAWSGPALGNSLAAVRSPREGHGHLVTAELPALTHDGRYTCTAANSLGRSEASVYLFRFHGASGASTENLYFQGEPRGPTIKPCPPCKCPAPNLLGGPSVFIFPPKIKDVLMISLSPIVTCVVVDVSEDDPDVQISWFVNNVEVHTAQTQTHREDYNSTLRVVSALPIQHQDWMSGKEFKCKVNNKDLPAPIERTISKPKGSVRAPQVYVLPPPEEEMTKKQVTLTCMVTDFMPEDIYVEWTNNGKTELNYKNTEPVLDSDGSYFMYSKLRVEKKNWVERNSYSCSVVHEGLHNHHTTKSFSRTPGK
Description: The activities of the anti-Siglec15 antibodies to block binding of Siglec15 protein to cell surface LRRC4C were evaluated by Flow Cytometry (FACS), using in house made LRRC4C-3F12-1B9 cells. Briefly, HEK-293 cells (ATCC #CRL-1573) were transfected with pCMV-T-P plasmid constructs with the nucleotide sequence encoding human LRRC4C (amino acid residues Met1-Ile640 of uniprot #Q9HCJ2) inserted between EcoRI and XbaI, following the instruction of lipofectamine 3000 transfection reagent (Thermo Fisher). A stable cell named LRRC4C-3F12-1B9 was chosen for subsequent cell based ligand-blocking assay.
Briefly, the anti-Siglec15 antibodies of the disclosure or controls were diluted with human Siglec15-mouse Fc protein (prepared in-house with SEQ ID NO: 26, 8 μg/ml […] in FACS buffer), starting at 66.67 nM with a 5-fold serial dilution, and incubated at room temperature for 40 minutes. Then, LRRC4C-3F12-1B9 cells were harvested from cell culture flasks, washed twice and re-suspended in PBS containing 2% v/v Fetal Bovine Serum (FACS buffer). Then, 1×10⁵ cells per well in 96 well-plates were incubated in 100 μL of the antibody/Siglec15-mouse Fc mixtures for 40 minutes at 4° C. […] Cells were washed twice and re-suspended in FACS buffer. Fluorescence was measured using a Becton Dickinson FACS Canto II-HTS equipment. Data was analyzed using Graphpad Prism software and IC₅₀ values were reported.

IC50 [1]: ~0.0777 nM
B1: A1E10G7H9 (antibody, V domains shown)
VH: QVQLQESGPGLVKPSGTLSLTCAVSGGSISSSNWWHWVRQPPGKGLEWIGEIYHSGNTNYKPSLKSRVTISVDKSKNQFSLKLSSVTAADTAVYYCARDEGNGWSNAFDIWGQGTMVTVSS
VL: ENVLTQSPGTLSLSPGERVTLSCRASQSVSSSYLAWYQQKPGQAPRFLIYGASGGATGIPDRFSGSGSGTDFTLTISRLEPEDFAVYYCQQYGSSPITFGQGTRLEIK
notes: Fully human antibody from transgenic mouse hybridoma

IC50 [2]: 0.253 nM
EC50 [3]: 2.11 nM
IC50 [4]: 0.639 nM
B2: anti-Siglec15 benchmark (ch5G12) (antibody, human IgG1, kappa, V domains shown)
VH: QVQLQQPGAELVKPGASVKMSCKASGYTFTSYWITWVIQRPGQGLEWIGDIYCGSDTMHYNEKFKNKATLTVDTSSSTAYMQLSSLTSEDSAVYYCARWWDYGSSYDYFDYWGQGTTLTVSS
VL: DIKMTQSPSSMYASLGERVTITCKASQDINSYLSWFQQKPGKSPKTLIYRANRLVDGVPSRFSGSGSGQDYSLTISSLEYEDMGIYYCLQYDEFPYTFGGGTKLEIKR
notes: ch5G12 (US 20190202912A1); also called BM; Siglec15-ch5G9

IC50 [2]: 0.0836 nM
B3: A2A5C7E8 (antibody, V domains shown)
VH: EVQLVQSGAEVKKPGESLRISCKGSGYSFTTYWISWVRQMPGKGLEWMGLIDPSDSYTNYSPSFQGHVTISTDKSISTAYLQWSSLKASDTAMYYCARGGYYGSEEDYWGQGTLVTVSS
VL: EIVLTQSPGTLSLSPGERATLSCRASQSVSSSRLAWFQQKSGQAPRLLIFDASSRATGIPDRFSGSGSGTDFTLTISRLEPEDFAVYYCQQYGSSPRTFGQGTKVEFK
notes: Fully human antibody from transgenic mouse hybridoma; also called A2A5C7E8-1

Reference: patent US20230106715A1 (BIOSION, published 2023)
